Data on two substances can be found in article PMC5796892.

The target of assay [1] is serum-derived MBL-associated serine proteases (MASPs) (human (endogenous in normal human serum)). The assay can be described thus: ELISA; normal human serum diluted 1:10 in veronal buffer saline bound to mannan-coated plate (37°C, 2 h), washed; rLdISP1/rLdISP2 0-50 µM added, 37°C, 2 h; bound ISP detected with anti-ISP1 or anti-ISP2 antibody.
Assay [2] addresses neutrophil elastase (NE) from human leukocytes (human) (UniProt P08246).
Assay [3] addresses serum-derived MBL-associated serine proteases (MASPs) (human (endogenous in normal human serum)). The assay can be described thus: ELISA; normal human serum diluted 1:50 in veronal buffer saline bound to mannan-coated plate (37°C, 2 h), washed; rLdISP1/rLdISP2 0-50 µM added, 37°C, 2 h; bound ISP detected with anti-ISP1 or anti-ISP2 antibody.
For assay [4] the target is unchanged. The assay can be described thus: ELISA; normal human serum diluted 1:100 in veronal buffer saline bound to mannan-coated plate (37°C, 2 h), washed; rLdISP1/rLdISP2 0-50 µM added, 37°C, 2 h; bound ISP detected with anti-ISP1 or anti-ISP2 antibody.
Assay [5] has as its target C1 complex (C1qr2s2) (human) (UniProt P02745). The assay can be described thus: ELISA; C1 complex at 50 µg/ml bound to human IgM-coated plate (37°C, 2 h); rLdISP1/rLdISP2 0-50 µM added, 37°C, 2 h; bound ISP detected with anti-ISP1 or anti-ISP2 antibody; Kd taken as the free ligand at half saturation.
Assay [6] deals with MBL-associated serine protease 2 (MASP2), serum-derived (human (endogenous in normal human serum)).
The target is the same in assay [7]. This is another data set of the same source.
Assay [8] addresses C1 complex (C1qr2s2) (human) (UniProt P02745). The assay can be described thus: ELISA; C1 complex at 12.5 µg/ml bound to human IgM-coated plate (37°C, 2 h); rLdISP1/rLdISP2 0-50 µM added, 37°C, 2 h; bound ISP detected with anti-ISP1 or anti-ISP2 antibody; Kd taken as the free ligand at half saturation.
In assay [9] the target is MBL-associated serine protease 2 (MASP2), serum-derived (human (endogenous in normal human serum)). This is another data set of the same source.
For assay [10] the target is unchanged. This is another data set of the same source.
The target in assay [11] is C1 complex (C1qr2s2) (human) (UniProt P02745). The assay can be described thus: ELISA; C1 complex at 25 µg/ml bound to human IgM-coated plate (37°C, 2 h); rLdISP1/rLdISP2 0-50 µM added, 37°C, 2 h; bound ISP detected with anti-ISP1 or anti-ISP2 antibody; Kd taken as the free ligand at half saturation.
Assay [12] shares this target. The assay can be described thus: ELISA; C1 complex at 6.25 µg/ml bound to human IgM-coated plate (37°C, 2 h); rLdISP1/rLdISP2 0-50 µM added, 37°C, 2 h; bound ISP detected with anti-ISP1 or anti-ISP2 antibody; Kd taken as the free ligand at half saturation.
Assay [13] has the same target. The assay can be described thus: ELISA; C1 complex at 100 µg/ml bound to human IgM-coated plate (37°C, 2 h); rLdISP1/rLdISP2 0-50 µM added, 37°C, 2 h; bound ISP detected with anti-ISP1 or anti-ISP2 antibody; Kd taken as the free ligand at half saturation.
Assay [14] shares this target. The assay is described as above. This is another data set of the same source.

Sequence of neutrophil elastase (NE) from human leukocytes (human) (P08246 30-267): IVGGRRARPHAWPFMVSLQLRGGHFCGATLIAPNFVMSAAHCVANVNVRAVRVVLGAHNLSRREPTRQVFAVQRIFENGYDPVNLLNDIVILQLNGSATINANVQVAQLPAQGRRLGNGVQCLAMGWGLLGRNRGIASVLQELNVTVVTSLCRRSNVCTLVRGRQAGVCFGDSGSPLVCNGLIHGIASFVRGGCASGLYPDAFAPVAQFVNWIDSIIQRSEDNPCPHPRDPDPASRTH

As to “recombinant Leishmania donovani inhibitor of serine peptidases 1 (natural protein)”, the Ka is 710000 M⁻¹ in [1], 450000 M⁻¹ in assay [3] and 310000 M⁻¹ in assay [4]. Moreover, the figures for the Kd in [1], in assay [3] and in [4] were 1400 nM, 2200 nM and 3200 nM, respectively. The substance also showed an enzyme activity of NE (50 nM; substrate N-methoxysuccinyl-Ala-Ala-Pro-Val-AMC), inhibition at 10 µM rLdISP1 in assay [2] of 27%.
With “recombinant L. donovani inhibitor of serine peptidases 2 (natural protein)”, the Ka amounted to 500000 M⁻¹ in assay [5]; 830000 M⁻¹ in assay [1]; 310000 M⁻¹ in [8]; 520000 M⁻¹ in assay [3]; 330000 M⁻¹ in assay [4]; 350000 M⁻¹ in assay [11]. Moreover, the figures for the Ka in assay [12] and in assay [14] were 280000 M⁻¹ and 760000 M⁻¹, respectively. Moreover, the Kd was 2000 nM in assay [5]; 1200 nM in [1]; 3200 nM in [8]; 1900 nM in [3]; 3000 nM in [4]; 3000 nM in assay [11]. For the same substance, the values for the Kd in assay [12], in [13] and in [14] were 3500 nM, 1600 nM and 1300 nM, respectively. In addition, in assay [6], the enzyme activity of serum-derived MASP2 (substrate Z-L-Lys-SBzl with DTNB), reduction against untreated serum at 5, 10 and 50 µM rLdISP2 (~30, ~44, ~60%) was 60%. This substance also gave a C3 convertase (C3c) formation by all complement pathways in human serum with promastigotes, fold reduction at 10 and 50 µM rLdISP2 (~1.5, ~2.5-fold) in assay [7] of 2.5 fold. For the same substance, the C3 convertase (C3c) formation by the lectin pathway (lectin pathway-specific serum), fold reduction at 10 and 50 µM rLdISP2 (~2, ~4-fold) in [7] worked out at 4 fold. Moreover, the C5 convertase (C5c) formation by all three pathways, fold reduction at 10 and 50 µM rLdISP2 (~1.5, ~2.9-fold) in assay [7] is 2.9 fold. Besides, in assay [7], the C5 convertase (C5c) formation by the lectin pathway, fold reduction at 10 and 50 µM rLdISP2 (~1.4, ~3.2-fold) came to 3.2 fold. In assay [2], this substance came in with a C5aR expression (western blot) in macrophages treated with NE pre-incubated with 10 µM rLdISP2, fold increase against control of 2.5 fold. The enzyme activity of NE (50 nM; substrate N-methoxysuccinyl-Ala-Ala-Pro-Val-AMC), reduction at 0.1, 1 and 10 µM rLdISP2 (~49, ~60, ~82%) in assay [2] was 82%. Moreover, the C4b formation (C4 cleavage by serum-derived MASPs on mannan plate, sandwich ELISA), fold decrease against control at 10 and 50 µM rLdISP2 (~2.1, ~2.9-fold) in [9] came to 2.9 fold. This substance also displayed an MAC (C5b-9) formation on promastigotes via the lectin pathway, fold decrease against active LPSS at 10 and 50 µM rLdISP2 (~1.5, ~2.3-fold) in assay [10] of 2.3 fold. Besides, the complement-mediated lysis of promastigotes via the lectin pathway, fold reduction at 10 and 50 µM rLdISP2 (~1.8, ~2.5-fold) in assay [10] is 2.5 fold.
